Laboratory results from PMC6636998.

Key:
[1] = biological target: pyruvate kinase M2 (PKM2), wild type, purified recombinant human (human) (UniProt P14618); assay: native MS; nano-ESI, 10 µM PKM2 in 200 mM ammonium acetate pH 6.8, no FBP added (PKM2^apo*, <25% co-purified FBP); also with 300 µM Phe alone (fewer tetramers, more dimers)
[2] = biological target: pyruvate kinase M2 (PKM2), wild type, purified recombinant human (human) (UniProt P14618); assay: native MS; time course over 20 min, 10 µM PKM2 with 5 µM FBP and 400 µM Phe; ratio of the tetramer 32+ peak to the dimer 22+ peak, two-state sigmoidal model; dimers and monomers to tetramer

pyruvate kinase M2 (PKM2), wild type, purified recombinant human, P14618-1 1-531 (enzyme; other documents disagree on this pair), sequence (P14618 whole entry): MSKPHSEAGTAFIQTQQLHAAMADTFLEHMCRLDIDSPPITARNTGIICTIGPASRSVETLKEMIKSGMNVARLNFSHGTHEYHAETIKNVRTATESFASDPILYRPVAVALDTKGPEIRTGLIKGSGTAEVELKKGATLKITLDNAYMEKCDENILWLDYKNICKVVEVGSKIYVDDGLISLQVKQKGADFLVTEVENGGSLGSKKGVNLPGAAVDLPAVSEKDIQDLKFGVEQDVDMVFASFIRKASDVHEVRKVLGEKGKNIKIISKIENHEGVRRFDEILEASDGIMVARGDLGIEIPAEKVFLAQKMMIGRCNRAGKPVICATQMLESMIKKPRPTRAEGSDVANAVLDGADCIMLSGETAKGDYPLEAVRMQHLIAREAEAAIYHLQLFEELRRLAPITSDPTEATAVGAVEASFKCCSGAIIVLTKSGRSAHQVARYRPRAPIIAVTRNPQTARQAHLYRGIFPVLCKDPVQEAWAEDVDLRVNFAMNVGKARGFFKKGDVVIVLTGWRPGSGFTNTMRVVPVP

stoichiometry N [1]: 2 | ktet (kinetics of tetramerisation with half-stoichiometric FBP and Phe) [2]: 812 s
Substance: pyruvate kinase M2 (PKM2), wild type, purified recombinant human, P14618-1 1-531 (enzyme; other documents disagree on this pair)
